Our source for the Kd values is paper PMC6985235 (2020).

One may read the Kd as the constant that tells how readily two partners part at equilibrium. Read a low Kd as tighter binding.

The target of this assay is His-TvCyP1 (Trichomonas vaginalis, UniProt A2DT06 1-173). The assay is described as follows: ITC; 25°C. (In general: ITC needs no label: the signal is the heat of the interaction.)

B1: His-Myb3^53–180 (domain or fragment)
chain: KGPFTEAEDDLIREYVKENGPQNWPRITSFLPNRSPKQCRERWFNHLDPAVVKHAWTPEEDETIFRNYLKLGSKWSVIAKLIPGRTDNAIKNRWNSSISKRISTNSNHKEILLPDRSKKRKAADVPKK
B1 returned a Kd of 2.04 mM.
